We go through 36 sequences from the supplement of paper PMC12764529.

A short description of series [1]: folding stability dG unfold from trypsin proteolysis; higher = more stable. The method in brief: (§1)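 Designed mini-proteins with no cysteine and under 80 residues were kept only if AlphaFold2 dimer inter-PAE was above 15. In a PA-tagged cDNA display construct, they were digested with trypsin and chymotrypsin and then sequenced. K50 was inferred by Bayesian fitting of counts, and unfolding free energy was derived per protease or combined against a sequence-predicted unfolded-state K50 and a shared folded-state K50.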

Series [2] in a line: folding stability dG unfold from chymotrypsin proteolysis; higher = more stable. The method in brief: as §1
A short description of series [3]: folding stability dG unfold (combined trypsin and chymotrypsin); higher = more stable. The method in brief:
as §1

± gives the half width of the 95% confidence interval.

Regarding “ADPDVKVEVEFEVLPDGRLRVTAVDPDTGVVVEVEAPVDGAGPVTVRVRVRVFDPETGEVSTFEAEFTLPLS [r1_45_TrMRF]”, the “folding stability dG unfold” value in series [1] turned out to be 3.71 ± 0.12 kcal/mol; in series [2] it was 4.33 ± 0.15 kcal/mol; in series [3], 4.14 ± 0.17 kcal/mol.
Turning to “AFTITGIEVTYDPATNTVTVTATVTGPDGSTATVTLTLTLPAPPPPVTTVTRTETRTLPDGTTVTVTETFTS [r1_125_TrROS_Hall]”, the “folding stability dG unfold” value in series [1] worked out at 2.21 ± 0.037 kcal/mol; in series [2], 4.09 ± 0.048 kcal/mol; in series [3] it was 3.43 ± 0.13 kcal/mol.
For “DDNQEYEYENPGGMKMRVEYNPSTGNMKVEMEPVPPVPPIPPIMIPLDLTPEQANRLINELQDLGIPIMVGS [r1_242_TrROS]” the same measures were 0.906 ± 0.06 kcal/mol, 1.33 ± 0.086 kcal/mol and 1.16 ± 0.16 kcal/mol.
The matching figures for “DTVTIVVEGMSEEEVLEKARAAAEELAKEGKTVEIVVKLSPEALKKAGVEKVEEVEDEETGLLVIKVEVKPS [r1_467_TrROS_Hall]”: 1.04 ± 0.13 kcal/mol, 0.599 ± 0.07 kcal/mol and 0.684 ± 0.28 kcal/mol.
The matching figures for “DVVIDIDELKKAIEKAKPGEVLELTVKVKDKATGKEYTVRVTVTVNPDGKTVTVTVVNEETGEVIETITLPS [r1_165_TrROS_Hall]”: 3.94 ± 0.21 kcal/mol, 5.23 ± 0.22 kcal/mol and more than 6 kcal/mol.
As to “EEWYIIQIKIEYWGPNGKEREIDIMVLIPPEQMTPDQLKQVKEIAREIAENLQENGYNIEINVEIIPLDDMS [r1_221_TrROS]”, the “folding stability dG unfold” value was 3.07 ± 0.26 kcal/mol in series [1], 3.9 ± 0.23 kcal/mol in series [2] and more than 6 kcal/mol in series [3].
For “EKKTLTVLIEVPPEKLEEALARALELAKALPPGQKLEIEIVNEDGTVVRVTVTVDENGEIHIDVEVLPRPPS [r1_350_TrROS_Hall]” the same measures were 1.76 ± 0.073 kcal/mol, 2.36 ± 0.16 kcal/mol and 2.23 ± 0.16 kcal/mol.
The matching figures for “ENYVAIEITMEMPNPDGMEMKFDLKIIKLDPDDGKFAIEMSMEMENPNGKPYRHPMWFVIPADELKEFLEAS [r1_371_TrROS]”: 2.56 ± 0.22 kcal/mol, 4.12 ± 0.12 kcal/mol and 3.54 ± 0.28 kcal/mol.
The matching figures for “GEFVSVESVERLPDGTLVVKIKYKPPSPDTPVTVTVSHPDSSVTFTMDPTSSTITVTVPPSVSDVSVTVVGS [r1_428_JUSTAS]”: 2.6 ± 0.1 kcal/mol, 3.58 ± 0.12 kcal/mol and 3.29 ± 0.093 kcal/mol.
Regarding “GENVPPKTVTVSAPVDPTTGRVTVNPGNTTVSISLPDGADVTLSFSTSMSEEEQLAFVEKEAAALNAALAAS [r1_25_JUSTAS]”, the results for the “folding stability dG unfold” value in series [1], in series [2] and in series [3] were 1.64 ± 0.027 kcal/mol, 0.443 ± 0.055 kcal/mol and 1.18 ± 0.048 kcal/mol, respectively.
The matching figures for “GHRIKVNTVHTPSGTFSLTATVRYPDGTTVTYSFNLPSSPNDTFSVSVPESVPLTTVTTSTFQGDTETPTSS [r1_70_JUSTAS]”: 1.02 ± 0.044 kcal/mol, 1.69 ± 0.18 kcal/mol and 1.49 ± 0.12 kcal/mol.
Consider “GKYYLVNIVVVNEDNKSLVFPKVFPENDPEKVLEEIKKLLEELGFKAKKLITVFEKLPDGNVLVNAVVEVGS [r1_281_TrMRF]”, for which the entries for the “folding stability dG unfold” value in series [1], in series [2] and in series [3] were 3.79 ± 0.15 kcal/mol, 5.63 ± 0.25 kcal/mol and 5.57 ± 0.3 kcal/mol, respectively.
For “GLEVKVDITVDPVGGGTRIPVTVSVPGRPIAQATADVDPETGVVNLDLGAESEEERKAALEKLKEAGIKLGS [r1_455_JUSTAS]” the same measures were 1.1 ± 0.049 kcal/mol, 1.42 ± 0.054 kcal/mol and 1.35 ± 0.083 kcal/mol.
For “GMPYTVDVVIEEAEDGVIIPIKLSVDGALVAEAVAPVDPVTKKVVIKPGAASKEALDVALEKLKELGIEPGS [r1_455_TrMRF]” the same measures were -0.487 ± 0.4 kcal/mol, 0.537 ± 0.17 kcal/mol and 0.162 ± 0.26 kcal/mol.
For “GMTIVPPSSPVTDSSGNYEEYPDSQLYKDSSTGKPIIAFPMSPEELAAGDPAALARREALAKEYGLPEIEPS [r1_438_JUSTAS]” the same measures were -0.579 ± 0.35 kcal/mol, 0.0509 ± 0.37 kcal/mol and 0.0139 ± 0.25 kcal/mol.
As for “GMTVTHTAEAGGRPLTITVTRSPDGWEVTVTDPDGTPIFSKTIPSDKNATLTLTDSAGNPLVTVNITLPPES [r1_34_JUSTAS]”, the “folding stability dG unfold” value amounted to 4.15 ± 0.11 kcal/mol in series [1], 3.8 ± 0.046 kcal/mol in series [2] and 3.91 ± 0.051 kcal/mol in series [3].
For “GPEVLVETFVDPETGRVVVRVYFPEPDRLVLAVGERGGDGVRVLVVEYEADPLEPRFAEFEFPALPEGFDES [r1_404_TrMRF]” the same measures were 2.52 ± 0.14 kcal/mol, 2.59 ± 0.054 kcal/mol and 2.44 ± 0.092 kcal/mol.
In the case of “GSARFEASAFLAELPFPPQRVLVVLVRGEDGRVRLFVFFPDGSVVEFDLETGRVVRVIDLPDAPLPPGLLES [r1_409_TrMRF]”, the “folding stability dG unfold” value was found to be 2.9 ± 0.071 kcal/mol in series [1], 3.63 ± 0.075 kcal/mol in series [2] and 3.39 ± 0.12 kcal/mol in series [3].
“GSSMTVEVSESVVPGTGKKILHVTVTFGGSDPEVARAQALAYVEKETGLPVVSVTVTRAPDSWTVNMTVVGS [r1_337_JUSTAS]”: the “folding stability dG unfold” value in series [1] was 2.86 ± 0.085 kcal/mol; in series [2], 2.63 ± 0.032 kcal/mol; in series [3] it was 2.81 ± 0.083 kcal/mol.
With “IETGEYDIEIELPAPNGYKVKVKFKFVKVDPENGKVYVEVELEVTLPGGKPIKLPLRLVMPAEEIKKFLESS [r1_371_TrMRF]”, the figures for the “folding stability dG unfold” value in series [1], in series [2] and in series [3] were 2.98 ± 0.072 kcal/mol, 4.94 ± 0.053 kcal/mol and 4.64 ± 0.092 kcal/mol, respectively.
For “KIEIKVHPDGTLLIKAPLELIDLLIKLLKEKGYDAKILKIDPENGYVLIPVKPKPPPIPKPTPEELLKALFS [r1_78_TrMRF]” the same measures were 2.29 ± 0.096 kcal/mol, 3.78 ± 0.1 kcal/mol and 3.35 ± 0.2 kcal/mol.
On to “KKEEEIKKLEEAVREALKKKGLEVKIVEVKKNKNGEYTLTIELKDGKKIEITIKKEKMTVEDILKKLKELLS [r1_279_TrROS_Hall]”, for which the results for the “folding stability dG unfold” value in series [1], in series [2] and in series [3] were 4.13 ± 0.23 kcal/mol, 4.04 ± 0.15 kcal/mol and 4.13 ± 0.18 kcal/mol, respectively.
In the case of “KKKIKKIEIEIKIPVKSIEEAKEEVEKLAKELKEKFPEIKKIKVEIIKYDEKKGYITVKITIEVNGKKIEFS [r1_52_TrROS_Hall]”, the “folding stability dG unfold” value in series [1] is 1.56 ± 0.2 kcal/mol; in series [2] it was 1.24 ± 0.13 kcal/mol; in series [3] it was 1.52 ± 0.28 kcal/mol.
The matching figures for “KKKKKKKKKKKKKEKVKVRIRIRLKVKDKETGEWKEIEVEIEIEMSKEEAEEIAKKLAEKYNFEIVEIEIES [r1_488_TrROS_Hall]”: 2.95 ± 0.079 kcal/mol, 3.46 ± 0.19 kcal/mol and 3.28 ± 0.21 kcal/mol.
Take “KKKYLVLLEARPRLYEFDENGKLIREIPLLVPFIGEGNDPEKVKEAAEKLFGEEVKILEVFPLEEVEEGKIS [r1_493_TrMRF]”: the “folding stability dG unfold” value was 1.85 ± 0.065 kcal/mol in series [1], 2.692 ± 0.017 kcal/mol in series [2] and 2.4 ± 0.072 kcal/mol in series [3].
For “KLKFKVKIKNPKTNETVEVEVELNEDGTVTVKVNGKLIAKFKIVAKPKPKVETKKVKDANGNEKTYKKVKFS [r1_496_TrROS_Hall]” the same measures were 1.15 ± 0.12 kcal/mol, 2.41 ± 0.27 kcal/mol and 1.91 ± 0.41 kcal/mol.
For “KPKIKITITFNKETGKITITAVNKDNNVVVKTEFELKDGKLTMKIEVKNKKTNKTYTIEIEIKLLKPGEKLS [r1_404_TrROS_Hall]” the same measures were 2.58 ± 0.19 kcal/mol, 4.32 ± 0.094 kcal/mol and 3.86 ± 0.32 kcal/mol.
The matching figures for “KRVTIMFNFPPGKPLPLSELAGFARNSGGEVKIQIYNPDDGKWQEITFPGGKIDDVEMFPDGWMVMITVKGS [r1_238_TrROS]”: 2.09 ± 0.061 kcal/mol, 2.83 ± 0.089 kcal/mol and 2.52 ± 0.15 kcal/mol.
On to “KTITIIIPMTPEQIEELAKALAEKLGLSEEEVEVVKVEKIKNEDGELYVKITIKLKETGKEITIIVPLKDLS [r1_21_TrROS_Hall]”, for which the “folding stability dG unfold” value in series [1] amounted to 1.76 ± 0.08 kcal/mol; in series [2], 3.2 ± 0.12 kcal/mol; in series [3] it was 2.8 ± 0.12 kcal/mol.
For “KTITIVIKNEDGELYVIKIKLKNGEEKEIVFKSLEELKNAIAKELGLSKEKIEIVEIKPLSPEELKELEKKS [r1_119_TrROS_Hall]”, the “folding stability dG unfold” value was determined as 1.99 ± 0.13 kcal/mol in series [1], 3.96 ± 0.14 kcal/mol in series [2] and 3.33 ± 0.35 kcal/mol in series [3].
The matching figures for “KTITIVVKVPSLEEVEALAAELAKELNLPPGAKVEVKVEYDEETGYVVVTVTVTNPNGEKIEIKIVVELPDS [r1_84_TrROS_Hall]”: 1.86 ± 0.1 kcal/mol, 3.72 ± 0.38 kcal/mol and 3.08 ± 0.22 kcal/mol.
For “KTKTIVINAKDLTEEQLRELLKKLGVSEEDVEVSEDGKTVVIKIDGVTIVIVASPPKPVVKPDDPEAKKAAS [r1_57_TrROS_Hall]” the same measures were 1.27 ± 0.051 kcal/mol, 1.75 ± 0.085 kcal/mol and 1.61 ± 0.12 kcal/mol.
The matching figures for “KTRHIPIRDALDEAEELIDEGPRMVKITIYNNNGQKHEIETLKDILDKLKSNFPGMPPDNMKVQVEVIPPPS [r1_325_TrROS]”: -0.297 ± 0.68 kcal/mol, -0.0938 ± 0.22 kcal/mol and -0.211 ± 0.3 kcal/mol.
On to “KVEIKVEIEVKYNKETGKKVVKIRITVKEGSKEEAEKLAAELAKELFGPNVKVTVEYDKETDEITVTLVFPS [r1_273_TrROS_Hall]”, for which the “folding stability dG unfold” value turned out to be 3.57 ± 0.15 kcal/mol in series [1], 4.06 ± 0.18 kcal/mol in series [2] and 3.96 ± 0.2 kcal/mol in series [3].
The matching figures for “LDPNKPENIALLEKVEEAAKAVIEELEKAGYKVEKLYVALGPNGIKIAPVTIPPEFIEELKKAGILVIPVLS [r1_134_TrMRF]”: 1.49 ± 0.11 kcal/mol, 1.64 ± 0.14 kcal/mol and 1.56 ± 0.26 kcal/mol.
“MDDVVRVVLPVRVRIRDPVAPDRPEREVEILLERDVPLDEESLEELLEEAERAAEELARALGGEEAEVEPVS [r1_300_TrMRF]”: the figures for the “folding stability dG unfold” value in series [1], in series [2] and in series [3] were 0.135 ± 0.09 kcal/mol, 1.54 ± 0.024 kcal/mol and 1.15 ± 0.089 kcal/mol, respectively.
